Laboratory results taken from paper doi:10.1101/797431 (bioRxiv, 2019).

Molecular target: E. coli RecQ helicase, wild type (E. coli, UniProt P15043 1-609)
Assay: fluorescence polarisation

Chain of E. coli RecQ helicase, wild type (P15043 whole entry): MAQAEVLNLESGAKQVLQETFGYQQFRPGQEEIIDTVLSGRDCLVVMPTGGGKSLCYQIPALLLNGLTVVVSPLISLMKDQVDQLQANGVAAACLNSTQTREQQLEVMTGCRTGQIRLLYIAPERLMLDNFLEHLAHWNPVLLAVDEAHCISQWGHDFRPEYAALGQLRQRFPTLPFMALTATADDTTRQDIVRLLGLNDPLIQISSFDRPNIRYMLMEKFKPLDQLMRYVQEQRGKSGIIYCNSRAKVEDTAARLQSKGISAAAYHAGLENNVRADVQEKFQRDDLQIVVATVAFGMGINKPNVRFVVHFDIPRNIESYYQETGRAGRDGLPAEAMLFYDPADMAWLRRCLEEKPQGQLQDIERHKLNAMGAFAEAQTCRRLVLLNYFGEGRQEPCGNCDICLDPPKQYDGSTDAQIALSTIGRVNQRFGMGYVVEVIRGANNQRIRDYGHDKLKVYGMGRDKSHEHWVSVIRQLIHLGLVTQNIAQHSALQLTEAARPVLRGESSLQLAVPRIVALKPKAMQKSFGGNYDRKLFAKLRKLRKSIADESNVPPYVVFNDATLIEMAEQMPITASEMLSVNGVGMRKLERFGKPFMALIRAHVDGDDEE

Binder: MDFDDDIPF (fluorescein on the N-terminus) [N-terminally fluorescein-labeled SSB C-terminal peptide (Flu-MDFDDDIPF)]
- binding result: binds
